± gives the uncertainty stated by the source.
Test: self-splicing fitness, log relative to wild type (ln ratio); higher = more splicing; Tetrahymena group I intron in knt gene, E. coli kanamycin selection, DiMSum; sequences stand for … in CUCUCU…GGAGGGAAAAGUUAUCAGGCAUGCACCUGGUAGCUAGUCUUUAAACCAAUAGAUUGCAUCGGUUUAAAAGGCAAGACCGUCAAAUUGCGGGAAAGGGGUCAACAGCCGUUCAGUACCAAGUCUCAGGGGAAACUUUGAGAUGGCCUUGCAAAGGGUAUGGUAAUAAGCUGACGGACAUGGUCCUAACCACGCAGCCAAGUCCUAAGUCAACAGAUCUUCUGUUGAUAUGGAUGCAGUUCACAGACUAAAUGUCGGUCGGGGAAGAUGUAUUCUUCUCAUAAGAUAUAGUCGGACCUCUCCUUAAUGGGAGCUAGCGGAUGAAGUGAUGCAACACUGGAGCCGCUGGGAACUAAUUUGUAUGCGAAAGUAUAUUGAUUAGUUUUGGAGUACUCGUGGUCG
Summary of the method: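 DiMSum derived fitness as the error-weighted combination of fold changes across replicates, kanamycin versus no kanamycin, normalised to wild type. E. coli BL21(DE3) held the library, which randomised all eight P1ex-region intron nucleotides within the knt kanamycin-resistance gene on pET-22b(+). Six replicate transformations grew overnight at 37°C or 30°C on LB agar with or without 25 μg/mL kanamycin, also containing 100 μg/mL carbenicillin, 50 μM IPTG and 0.2% rhamnose, and pooled colonies were amplicon-sequenced on an Illumina HiSeq 2500.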

| Sequence | self-splicing fitness (ln) (30 °C) | self-splicing fitness (ln) (37 °C) |
| --- | --- | --- |
| CUGAAGCAAUAUUACGCAGU | -3.09 ± 0.19 | -3.23 ± 0.43 |
| CUGAAGCAAUAUUACGCCGG | -1.86 ± 0.25 | -1.19 ± 0.25 |
| CUGAAGCAAUAUUACGCGGU | -1.86 ± 0.08 | -0.746 ± 0.081 |
| CUGAAGCAAUAUUACGCUAG | -1.1 ± 0.096 | -0.802 ± 0.099 |
| CUGAAGCAAUAUUACGGCCU | -4.04 ± 0.26 | -2.43 ± 0.33 |
| CUGAAGCAAUAUUACGGCGA | -3.53 ± 0.27 |  |
| CUGAAGCAAUAUUACGGCGU | -3.6 ± 0.41 | -2.98 ± 0.47 |
| CUGAAGCAAUAUUACGGCUG | -0.126 ± 0.074 | 0.668 ± 0.11 |
| CUGAAGCAAUAUUACGGGGG | -1.46 ± 0.14 | -1.28 ± 0.18 |
| CUGAAGCAAUAUUACGGGUU | -3.71 ± 0.21 | -2.77 ± 0.22 |
| CUGAAGCAAUAUUACGGUUG | -0.0856 ± 0.068 | 0.139 ± 0.096 |
| CUGAAGCAAUAUUACGUAAU | -2.87 ± 0.24 | -2.17 ± 0.5 |
| CUGAAGCAAUAUUACGUAGG | -3.21 ± 0.18 | -2.36 ± 0.25 |
| CUGAAGCAAUAUUACGUCCU | -3.45 ± 0.23 | -2.39 ± 0.23 |
| CUGAAGCAAUAUUACGUGAC | -1.24 ± 0.086 | -0.353 ± 0.1 |
| CUGAAGCAAUAUUACGUUGU | -4.42 ± 0.13 | -2.28 ± 0.14 |
| CUGCAGCAAUAUUACGACUA | -1.58 ± 0.13 | -1.09 ± 0.12 |
| CUGCAGCAAUAUUACGAGAC | -2.19 ± 0.16 | -1.31 ± 0.16 |
| CUGCAGCAAUAUUACGAGUC | -3.68 ± 0.23 | -2.59 ± 0.41 |
| CUGCAGCAAUAUUACGAGUG | -0.52 ± 0.053 | 0.112 ± 0.087 |
| CUGCAGCAAUAUUACGAGUU | -3.55 ± 0.21 | -2.83 ± 0.28 |
| CUGCAGCAAUAUUACGAUUU | -4.06 ± 0.17 | -1.7 ± 0.14 |
| CUGCAGCAAUAUUACGCACA | -2.82 ± 0.19 | -1.48 ± 0.19 |
| CUGCAGCAAUAUUACGCGAC | -2.19 ± 0.14 | -0.91 ± 0.12 |
| CUGCAGCAAUAUUACGCGAG | -3.67 ± 0.17 | -1.98 ± 0.15 |
| CUGCAGCAAUAUUACGGCCG | -0.291 ± 0.12 | -0.672 ± 0.14 |
| CUGCAGCAAUAUUACGGCUA | -2.6 ± 0.19 | -0.78 ± 0.17 |

| Sequence | self-splicing fitness (ln) (30 °C) | self-splicing fitness (ln) (37 °C) |
| --- | --- | --- |
| CUGCAGCAAUAUUACGGGAG | -2.74 ± 0.11 | -1.79 ± 0.12 |
| CUGCAGCAAUAUUACGGGUG | -0.771 ± 0.049 | -0.0809 ± 0.058 |
| CUGCAGCAAUAUUACGGUCA | -3.07 ± 0.23 | -2.18 ± 0.16 |
| CUGCAGCAAUAUUACGUAAU | -4.74 ± 0.2 | -2.04 ± 0.16 |
| CUGCAGCAAUAUUACGUACU | -2.89 ± 0.2 | -1.69 ± 0.21 |
| CUGCAGCAAUAUUACGUAGU | -4.54 ± 0.45 | -2.5 ± 0.28 |
| CUGCAGCAAUAUUACGUCUA | -1.64 ± 0.12 | -0.709 ± 0.15 |
| CUGGAGCAAUAUUACGAAAU | -3.11 ± 0.22 | -2.72 ± 0.29 |
| CUGGAGCAAUAUUACGAACG | -0.869 ± 0.15 | 0.129 ± 0.16 |
| CUGGAGCAAUAUUACGAAUG | -1.88 ± 0.12 | 0.0741 ± 0.15 |
| CUGGAGCAAUAUUACGACAA | -2.11 ± 0.2 | -1.7 ± 0.2 |
| CUGGAGCAAUAUUACGACAU | -2.19 ± 0.019 | -1.3 ± 0.036 |
| CUGGAGCAAUAUUACGACCG | -0.607 ± 0.082 | 0.106 ± 0.14 |
| CUGGAGCAAUAUUACGAUAC | -2.26 ± 0.22 |  |
| CUGGAGCAAUAUUACGAUGU | -3.26 ± 0.16 | -2.97 ± 0.23 |
| CUGGAGCAAUAUUACGAUUU | -4.07 ± 0.46 | -2.01 ± 0.34 |
| CUGGAGCAAUAUUACGCAGU |  | -1.99 ± 0.43 |
| CUGGAGCAAUAUUACGCGGA | -1.86 ± 0.24 |  |
| CUGGAGCAAUAUUACGGAGC | -3.08 ± 0.34 | -2.38 ± 0.38 |
| CUGGAGCAAUAUUACGGAUU | -3.29 ± 0.43 | -2.83 ± 0.34 |
| CUGGAGCAAUAUUACGGCAA | -2.52 ± 0.25 | -2.75 ± 0.3 |
| CUGGAGCAAUAUUACGGCUC | -2.58 ± 0.3 |  |
| CUGGAGCAAUAUUACGGUCG | -1.2 ± 0.087 | -0.266 ± 0.12 |
| CUGGAGCAAUAUUACGUAUA | -3.12 ± 0.36 | -2.48 ± 0.3 |
| CUGGAGCAAUAUUACGUCGA | -3.15 ± 0.29 | -2.82 ± 0.34 |
| CUGGAGCAAUAUUACGUGAU | -2.53 ± 0.076 | -1.18 ± 0.078 |
| CUGGAGCAAUAUUACGUUGG | -2.89 ± 0.14 | -1.86 ± 0.15 |

| Sequence | self-splicing fitness (ln) (30 °C) | self-splicing fitness (ln) (37 °C) |
| --- | --- | --- |
| CUGUAGCAAUAUUACGAAAU | -3.22 ± 0.23 | -2.54 ± 0.26 |
| CUGUAGCAAUAUUACGAAGC | -4.57 ± 0.42 | -2.67 ± 0.38 |
| CUGUAGCAAUAUUACGACGA | -1.4 ± 0.19 | -0.118 ± 0.15 |
| CUGUAGCAAUAUUACGAGAA |  | -2.78 ± 0.38 |
| CUGUAGCAAUAUUACGAGAC | -2.77 ± 0.2 | -0.769 ± 0.14 |
| CUGUAGCAAUAUUACGCGAC | -2.56 ± 0.2 | -2.41 ± 0.28 |
| CUGUAGCAAUAUUACGCUGC | -3.17 ± 0.3 |  |
| CUGUAGCAAUAUUACGGAAU | -2.18 ± 0.13 | -3.57 ± 0.32 |
| CUGUAGCAAUAUUACGGACG | -1.53 ± 0.12 | -0.319 ± 0.15 |
| CUGUAGCAAUAUUACGGGAU | -3.16 ± 0.26 | -2.28 ± 0.23 |
| CUGUAGCAAUAUUACGGGUA | -1.96 ± 0.35 |  |
| CUGUAGCAAUAUUACGGUAU | -2.41 ± 0.15 | -2.08 ± 0.18 |
| CUGUAGCAAUAUUACGGUCC | -2.27 ± 0.25 | -2.71 ± 0.44 |
| CUGUAGCAAUAUUACGGUGA | -3.22 ± 0.22 | -2.28 ± 0.24 |
| CUGUAGCAAUAUUACGUAGG | -1.03 ± 0.075 | -0.77 ± 0.12 |
| CUGUAGCAAUAUUACGUCUA |  | -1.78 ± 0.39 |
| CUGUAGCAAUAUUACGUGAG | -1.31 ± 0.072 | -0.935 ± 0.096 |
| CUGUAGCAAUAUUACGUGGA | -3.85 ± 0.28 | -4.32 ± 0.42 |
| CUGUAGCAAUAUUACGUGGC |  | 0.0373 ± 0.2 |
| CUUAAGCAAUAUUACGAAAG | -2.9 ± 0.22 | -1.75 ± 0.18 |
| CUUAAGCAAUAUUACGAACC |  | -0.593 ± 0.37 |
| CUUAAGCAAUAUUACGAGAC |  | -3.26 ± 0.43 |
| CUUAAGCAAUAUUACGCAGC | -3.43 ± 0.25 | -1.93 ± 0.37 |
| CUUAAGCAAUAUUACGCAUC |  | -0.617 ± 0.29 |
| CUUAAGCAAUAUUACGCCCA | -2.46 ± 0.32 | -1.69 ± 0.48 |
| CUUAAGCAAUAUUACGCCUC | -1.85 ± 0.22 |  |

From the supplement of paper PMC7877785
